Data published in publication PMC6706469.

Legend:
[1] = target: P34 (trypanosome-specific protein), endogenous (Trypanosoma brucei (endogenous in T. brucei cells)); assay: co-IP; whole-cell extract of 3×Ty-TbL11 T. brucei cells, with RNase A added to digest cellular RNA; beads with antibody to the target (anti-P34/P37, anti-TbL5 or anti-TbRpf2); anti-Ty Western blot of pellet and supernatant; amount in the pellet relative to pellet plus supernatant
[2] = target: TbL5 (Trypanosoma brucei ribosomal protein L5), endogenous (Trypanosoma brucei (endogenous in T. brucei cells)); assay: as above
[3] = target: P37 (trypanosome-specific protein), endogenous (Trypanosoma brucei (endogenous in T. brucei cells)); assay: as above
[4] = target: TbRpf2 (Trypanosoma brucei homologue of Rpf2), endogenous (Trypanosoma brucei (endogenous in T. brucei cells)); assay: as above
[5] = target: P34 (trypanosome-specific protein), endogenous (Trypanosoma brucei (endogenous in T. brucei cells)); assay: co-IP; whole-cell extract of 3×Ty-TbL11 T. brucei cells, without RNase A; beads with antibody to the target (anti-P34/P37, anti-TbL5 or anti-TbRpf2); anti-Ty Western blot of pellet and supernatant; amount in the pellet relative to pellet plus supernatant
[6] = target: TbL5 (Trypanosoma brucei ribosomal protein L5), endogenous (Trypanosoma brucei (endogenous in T. brucei cells)); assay: as above
[7] = target: P37 (trypanosome-specific protein), endogenous (Trypanosoma brucei (endogenous in T. brucei cells)); assay: as above
[8] = target: TbRpf2 (Trypanosoma brucei homologue of Rpf2), endogenous (Trypanosoma brucei (endogenous in T. brucei cells)); assay: as above
[9] = target: Recombinant TbRpf2 (Trypanosoma brucei); assay: co-IP; in vitro, recombinant TbL11 incubated with the recombinant target, without 5S rRNA; precipitated with antibody to the target; anti-His Western blot; amount in the pellet relative to pellet plus supernatant
[10] = target: Recombinant P34 (Trypanosoma brucei); assay: as above
[11] = target: Recombinant TbL5 (Trypanosoma brucei); assay: as above
[12] = target: Recombinant TbRpf2 (Trypanosoma brucei); assay: co-IP; in vitro, recombinant TbL11 incubated with the recombinant target, with in vitro-transcribed 5S rRNA added; precipitated with antibody to the target; anti-His Western blot; amount in the pellet relative to pellet plus supernatant
[13] = target: Recombinant P34 (Trypanosoma brucei); assay: as above
[14] = target: Recombinant TbL5 (Trypanosoma brucei); assay: as above

3×Ty-TbL11 (Ty-tagged Trypanosoma brucei ribosomal protein L11) (natural protein)
fraction in the pellet (pellet relative to pellet plus supernatant) [1]: 0.53
fraction in the pellet (pellet relative to pellet plus supernatant) [2]: 0.67
fraction in the pellet (pellet relative to pellet plus supernatant) [3]: 0.53
fraction in the pellet (pellet relative to pellet plus supernatant) [4]: 0.58
fraction in the pellet (pellet relative to pellet plus supernatant) [5]: 0.16
fraction in the pellet (pellet relative to pellet plus supernatant) [6]: 0.53
fraction in the pellet (pellet relative to pellet plus supernatant) [7]: 0.16
fraction in the pellet (pellet relative to pellet plus supernatant) [8]: 0.07

Recombinant TbL11 (Trypanosoma brucei ribosomal protein L11) (natural protein)
fraction in the pellet (pellet relative to pellet plus supernatant) [9]: 0.86
fraction in the pellet (pellet relative to pellet plus supernatant) [10]: 0.96
fraction in the pellet (pellet relative to pellet plus supernatant) [11]: 0.92
fraction in the pellet (pellet relative to pellet plus supernatant) [12]: 0.83
fraction in the pellet (pellet relative to pellet plus supernatant) [13]: 0.85
fraction in the pellet (pellet relative to pellet plus supernatant) [14]: 0.9
